The results in this text go back to patent publication US12365732 (23ANDME, dated 2025).

Assay [1] has as its target T1, hu-CD96 isoform 1 on HEK293T cells (human, UniProt P40200 22-585).
T1 construct: Origene RC213845, transient expression; also called HEK293T-CD96 (iso1)
T1 sequence: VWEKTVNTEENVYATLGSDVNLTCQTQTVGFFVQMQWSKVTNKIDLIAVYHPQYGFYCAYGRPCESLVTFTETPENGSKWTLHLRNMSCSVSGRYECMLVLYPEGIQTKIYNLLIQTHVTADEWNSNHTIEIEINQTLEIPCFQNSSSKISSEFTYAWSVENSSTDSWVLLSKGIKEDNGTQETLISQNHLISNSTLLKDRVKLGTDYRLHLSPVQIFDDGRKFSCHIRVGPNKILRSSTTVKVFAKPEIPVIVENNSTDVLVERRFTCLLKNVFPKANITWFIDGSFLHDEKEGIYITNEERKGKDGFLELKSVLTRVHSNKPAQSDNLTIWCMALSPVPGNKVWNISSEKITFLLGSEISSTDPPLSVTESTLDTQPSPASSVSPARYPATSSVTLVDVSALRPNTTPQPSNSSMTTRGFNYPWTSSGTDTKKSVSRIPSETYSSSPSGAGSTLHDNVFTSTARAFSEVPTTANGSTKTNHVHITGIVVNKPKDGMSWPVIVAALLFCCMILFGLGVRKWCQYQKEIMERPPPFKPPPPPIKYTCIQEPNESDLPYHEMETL
The assay is described as follows: FACS, Ab 2 nM. As to the method:
(§1) Isoform 1 of hu-CD96 (Origene, catalog #RC213845) was transiently expressed in HEK293T cells following standard lipofectamine or Fugene transfection protocol. […] Cells were washed, and binding was detected by incubation with anti-mouse IgG-FITC (Biolegend, catalog #406001) for 20 minutes at 4° C. Cell binding was analyzed by flow cytometry with a CytoFLEX (Beckman Coulter). Binding curves were calculated as a percentage of cells positive for bound antibody.

Assay [2] has as its target T1, hu-CD96 isoform 1 on HEK293T cells. Kind of assay: FACS, Ab 0.4 nM. As to the method: as §1
The target in assay [3] is T2, hu-CD96 isoform 2 on CHO cells (human, UniProt P40200 22-585).
T2 construct: also called CHO-CD96 (isoform 2); CD96-CHOs
T2 sequence: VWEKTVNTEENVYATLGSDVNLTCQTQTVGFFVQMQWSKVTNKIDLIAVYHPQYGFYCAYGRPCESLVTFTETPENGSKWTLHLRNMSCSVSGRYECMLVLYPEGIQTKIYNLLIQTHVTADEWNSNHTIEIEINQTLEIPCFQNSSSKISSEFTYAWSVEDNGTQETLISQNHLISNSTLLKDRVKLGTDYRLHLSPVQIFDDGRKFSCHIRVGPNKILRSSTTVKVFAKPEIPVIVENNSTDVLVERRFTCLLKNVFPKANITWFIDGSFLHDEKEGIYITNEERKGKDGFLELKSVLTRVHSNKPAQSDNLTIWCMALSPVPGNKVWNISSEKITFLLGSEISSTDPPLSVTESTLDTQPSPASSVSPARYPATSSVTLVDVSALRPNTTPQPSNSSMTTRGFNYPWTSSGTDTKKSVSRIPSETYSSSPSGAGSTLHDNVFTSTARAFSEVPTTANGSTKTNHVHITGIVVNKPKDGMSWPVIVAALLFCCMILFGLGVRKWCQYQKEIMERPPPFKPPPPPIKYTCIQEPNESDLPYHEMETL
The assay is described as follows: FACS, Ab 0.0032 nM. The method, then:
as §1
Isoform 2 of hu-CD96 (DNA construct: Origene, catalog #RC221005) was expressed on a single-cell-clone-derived CHO stable cell line. Binding of the anti-CD96 antibodies to the CHO cells were determined as described above with isoform 1 of hu-CD96.

Assay [4] has as its target T1, hu-CD96 isoform 1 on HEK293T cells. The assay is described as follows: FACS, % positive curve. The method, then:
as §1

The target of assay [5] is T2, hu-CD96 isoform 2 on CHO cells. Kind of assay: FACS, CD155-Fc-FLAG 10 nM, Ab 0.032 nM. The method, then:
(§2) CHO cells stably expressing isoform 2 of hu-CD96 (Origene, catalog #RC221005) were incubated with anti-CD96 antibodies for 20 minutes at 4° C. The cells were washed, and then incubated with 10 nM human CD155-Fc-FLAG for 30 minutes at 4° C. Cells were washed, and then human CD155-Fc-FLAG binding was detected by incubation with anti-FLAG-APC (Columbia Biosciences, catalog #D3-1718-1MG) for 20 minutes at 4° C. Cell binding was analyzed by flow cytometry with a CytoFLEX (Beckman Coulter). CD155 binding is represented as median fluorescence intensity (MedFI).
(§3) As shown in Table 20 (below), the anti-CD96 antibodies, mAb1.v7.NGS8, mAb1.v7.NGS9, mAb1.v7.NGS10, mAb1.v7.NGS11, and h10G1 inhibited soluble hu-CD155 binding to CD96-expressing CHO cells dose-dependently and potently. The antibody NK92.39 (Fuchs et al., 2004; Biolegend catalog #338405) inhibited receptor binding similarly.

For assay [6] the target is unchanged. Kind of assay: FACS, blocks 10 nM CD155-Fc-FLAG binding to CD96-CHO. As to the method: as §2, §3

B1: 7E5, purified hybridoma antibody (antibody, V domains shown)
VH: QVQLKESGPGLVAPSQSLSIICTVSGFSLTNYGIHWIRQPPGKGLEWLGIIWAGGSTNYNSALMSRLTISKDNSKSQVFLKMNSLQTNDTAIYYCARVSMMGFAYWGQGTLVTVSA
VL: QAVVTQESALTTSPGETVTLTCRSSTGAVTTSNYANWVQEKPDHLFTGLIGGTNNRAPGVPARFSGSLIGDKAALTITGAQTEDEAIYFCSLWYGSHWVFGGGTKLTVL
notes: murine hybridoma IgG
As to B1, the “% positive” value amounted to 37.1% in assay [1], 20.4% in assay [2] and 0.1% in assay [3]. The molecule further showed an EC50 in assay [4] of 0.71 nM.

B2: mAb1.v7 IgG (humanized 12F8) (antibody, V domains shown)
VH: EVQLVQSGAEVKKPGASVKVSCKASGFTFTNNWMHWVRQAPGQGLEWIGMIHPNSGITNINEKFKNRVTMTTDTSTSTAYMELRSLRSEDTAVYYCRSDGTYEGYFDYWGQGTLVTVSS
VL: DIQLTQSPSSLSASVGDRVTITCKASQNVGTAIVWYQQKPGKAPKVLIYSASTRYTGVPSRFSGSGSGTDFTLTISSLQPEDFATYYCQQYSSSPLTFGQGTKVEIKG
notes: human IgG1 N297G
For the molecule B2, the “% positive” value was determined as 27.3% in assay [1], 12.2% in assay [2] and 0.5% in assay [3]. The same molecule gave an EC50 in assay [4] of 2.6 nM.

B3: mAb1.v7.NGS11 IgG (antibody, V domains shown)
VH: EVQLVQSGAEVKKPGASVKVSCKASGFTFTNNFMHWVRQAPGQGLEWIGFIHANSGITNINEKFKNRVTMTTDTSTSTAYMELRSLRSEDTAVYYCRSDGVYEGYFDYWGQGTLVTVSS
VL: DIQLTQSPSSLSASVGDRVTITCKASQNVGTAIVWYQQKPGKAPKVLIYSASTRYTGVPSRFSGSGSGTDFTLTISSLQPEDFATYYCQQYSSSPLTFGQGTKVEIKG
notes: human IgG1 N297G
As for B3, the “CD155-Fc binding (MedFI)” value in assay [5] turned out to be 57700 MedFI. The IC50 in assay [6] is 0.46 nM.

B4: mAb1.v7.NGS9 IgG (antibody, V domains shown)
VH: EVQLVQSGAEVKKPGASVKVSCKASGFTFTNNFMHWVRQAPGQGLEWIGMIHANSGITNINEKFKNRVTMTTDTSTSTAYMELRSLRSEDTAVYYCRSDGVYEGYFDYWGQGTLVTVSS
VL: DIQLTQSPSSLSASVGDRVTITCKASQNVGTAIVWYQQKPGKAPKVLIYSASTRYTGVPSRFSGSGSGTDFTLTISSLQPEDFATYYCQQYSSSPLTFGQGTKVEIKG
notes: human IgG1 N297G
B4: in assay [5], the “CD155-Fc binding (MedFI)” value worked out at 53000 MedFI. The IC50 in assay [6] is 0.91 nM.

B5: mAb1.v7.NGS10 IgG (antibody, V domains shown)
VH: EVQLVQSGAEVKKPGASVKVSCKASGFTFTNNFMHWVRQAPGQGLEWIGFIHANSGITNINEKFKNRVTMTTDTSTSTAYMELRSLRSEDTAVYYCRSDGIYEGYFDYWGQGTLVTVSS
VL: DIQLTQSPSSLSASVGDRVTITCKASQNVGTAIVWYQQKPGKAPKVLIYSASTRYTGVPSRFSGSGSGTDFTLTISSLQPEDFATYYCQQYSSSPLTFGQGTKVEIKG
notes: human IgG1 N297G
Take B5: the “CD155-Fc binding (MedFI)” value in assay [5] was found to be 57700 MedFI. The molecule further came in with an IC50 in assay [6] of 0.57 nM.

B6: 9H4, purified hybridoma antibody (antibody, V domains shown)
VH: EVQLLETGGGLVKSGGSLKLSCAASGFTFSDYYMYWVRQTPEKRLEWVAAISDDGTYTYYPDSVKGRFTISRDNANNYLYLQMSSLKSEDTAIYYCAKAGSYDYFDVWGAGTTVTVSS
VL: DIVLTQSPASLAVSLGQRAIISCKASQSVTFADTGLMHWYQQKPGQQPKLLIYRASNLEVGVPTRFSGSGSGTDFTLNIHPVEEEDVATYYCQQSREYPWTFGGGTKLEIK
notes: murine hybridoma IgG
For B6, the “% positive” value worked out at 28.5% in assay [1], 13.9% in assay [2] and 0.3% in assay [3]. It took 2.1 nM to reach a half-maximal effect in assay [4] (EC50).

B7: 10G1 (clone 10G1.3G8), purified hybridoma antibody (antibody, V domains shown)
VH: QIQLVQSGPELKKPGETVKISCKASGYPFTTYGMSWVKQAPGKGLKWMGWINTDSGVPTYADDFKGRFAFSLETSANTAYLQINSLKNEDAATYFCARNIYYGWGNFDYWGQGTILTVSS
VL: DILMTQSPTTLSVTPGETVSLSCRASQDIYRNLHWYQQKSQGTPRLLIKHASDSISGIPSRFTGSGSGTDFTLSINSVKPEDEGIYYCLQGYSMPYTFGGGTKLEIK
notes: murine hybridoma IgG
With B7, the entries for the “% positive” value in assay [1], in assay [2] and in assay [3] were 48.1%, 34.6% and 0.1%, respectively. In addition, a half-maximal response in assay [4] (EC50) required 0.24 nM.

B8: h10G1 IgG (humanized 10G1) (antibody, V domains shown)
VH: EIQLVQSGSELKKPGASVKVSCKASGYPFTTYGMSWVRQAPGQGLEWMGWINTDSGVPTYADDFKGRFVFSLDTSVSTAYLQISSLKAEDTAVYFCARNIYYGWGNFDYWGQGTLVTVSS
VL: EIVMTQSPDFQSVTPKEKVTITCRASQDIYRNLHWYQQKPDQTPKLLIKHASDSISGIPSRFSGSGSGTDFTLTINSLEAEDAAAYYCLQGYSMPYTFGGGTKVEIKG
notes: human IgG1 N297G
Take B8: the “CD155-Fc binding (MedFI)” value in assay [5] came to 52100 MedFI. The same molecule yielded an IC50 in assay [6] of 0.06 nM.
